The values below come from the DeepSol protein solubility set.

A short description of this data set: soluble on expression in E. coli; label from the status in PepcDB or PDB records.
Turning to “MAHHHHHHMSHIYDMLGINVEKLKTKKKQKEKISKKQLNFLKDNDNLFSLPTTSKIISLNNKNVSVWRLVKFRSKCRNDDLILTKWSKIGYKNDKKEFNEDKIEDDNTFEKFNKKINIIKYNDDLYYREIQPLNTGWTKEETDYLFNLCEKYDCHFIIVNDVYDIKYKRTIEEIKERFYTVTKKVMEDKFDQQIKLEEAKKIKNNNDILKLKEAKAKHPLIKFTYNMQADLERKNIIHKTYTVSKKDVMLEETTLENIKKFESKIKLELKKAADMKKLKKKFELTTEEIVPITKLPEEDKEAKNIYSARYYFQKLKIDISYFDKLDIYLKENNIEKPTIYTENICFLYGVLRTDVAILLNLRKKIEKLKQEREFWKGQMNNLEEEYLKKQQKT”, the “soluble on expression in E. coli” value is on record as “not soluble”.
For “MSLSHYDRMKRSSIAPYRRSNDSSNRIDKKTGKKGHGLMSKLKDLVSFGWAQEHHKDNDFSARDTGRERTNVSKGSYAAVPGGFFSSDQSSFILRERSRIMNESTMHSEADTSNAKLADFFAKKGNEPLSEIEMEGVLALMQKSRGVADESSFLGNSSRLLGDISNANASQVLRTGNISTSSALNVPNFKPSTDESRNINAKEVENSTIVSTPLKRKNFDYSSIRSPYRTVIYRFDDSNKKKISSVFDKPESSSQEVDETPKPSNSKPLSNTASALVSLLSDKDAAKESIKPMANPYTSHLTALRKSREDLPSINDKITVPKRRQRSETEDKEEAKITSSNGEAQEDTNIPEGIASRKNEEAQDSFTKYKPMRSSSLRDSVSLAHTESNNEKQMNSPKFVPAPLDKNETKETAKSDLTLTSSDKQSESKPSFSFPVNSTTKSTFMGTKKESTSPAVNSEGHHHHHH”, the “soluble on expression in E. coli” value is listed as “soluble”.
With “SEFQSTVVATVDCQKQVRSWRLLRSFIQLLIPTCNCTLVQELEQDNTNLRGKKLYNDIKSRTSSFRSSSSLSSSTVTGTIFGYRKGKINFCIQTPRKSTNLDLLLELAVPTTVLAREMREGALRIVLERNNEKQDDDSFLSKPFWNMYCNGKRVGYARKRSPSQDDMTALTALSKVVVGAGVVTGKELGRFDDELMYLRASFRRVNGSKESESFHLIDPAGNIGQELSIFIVPSSV”, the “soluble on expression in E. coli” value is given as “soluble”.
Consider “MSLTETLDNTQDLLMDVDKYNFWEVEGEDAAGEVNSKDMDMVGVDEKSGAPVFRLTDNNDEQPLNENENGNFKFKMNTIATENMAYLTEKDKYKLYPSKVPGYDNSREYSSYVSKVFELYNDLDEHRVYSAPTIGIINKSYAREHNYVLNVAFESFVTELNFFIESIKNDPNLINRVLQLEESITILNCLKTIHFTFDSLQNESDSREQFVNSLIDWVNRSDGEPKEEYIEQIFTRNDNIEVFNTLQFWKLVNKLLLRGLFEQALGCLERSKIMDFLKSQCEVSANILGDAIALLEQYPIDSSETFREWKFMVLGLQQTYSNSNTKITGELRDYIEDTLLLIGGNQSKLLQYSSTWYEAYASFYLYYIPTLELSHDYLELALSTHPLDLTKNWEQACVNIINNKIYSILPVLESLDLCTAATTAALCEAKGILENFLDDDTKTFKGNVDKLVTPVHGMASYLLNQFAFELCSQEEKTLWPVAIGLISISPFESASVKRTTISEVLPRFPFSTNDDIEWMLAVCAKWRLPKIAKKIYKILGSKLQAEGNVIESMTNFSKAGEFDIVKNEGHHHHHH”, for which the “soluble on expression in E. coli” value is on record as “soluble”.
The entry for “MTLYEYDGSHVRKRVFQNTSWIFVTGDRYDIETLYDQLDSTRLKYEYSTMPDIYGYQDGIKIWVRPSHARMVGEIIFSNIGYGRRYRVYNADIDPVLRFMASNGLSFFEMRSVYDPDPDLNVAMVDCSHGKCIVDGEAMGDGRIYDRLMDSHVIVYEGTEQFYRKLMALGIRARYYPGKSFTSYGQISYRDSYLDIADRIAINSRSFFYAESGLSGIYEVSRISHLPPLYVSIVTPGTAVSSMELAEAVKKGMLVPFKKDDHENPKTKWEIMAKDRGGLIFQPLPGLYTDVYEIDFSSMYPSIIVRYDLTPGRISFLPEALEGLLSRRLIYKKMDGESVVYHSRNVALKWLLLTSFGYTGYKNAKFGKIEVHERITELGRKALAEAIAVAHENGFEMIHGIVDSLWIRGSGSIERVVSEISRRTRIDIVVSGHYHWIAFLPERDGTGSPSRYIGLDTSGKYKIRGLMIRRSDVPDLCKAFQMDALRVLSSCTDTRCILEKRREIMDLENYYLRNIRHFPRSYFMVSRKITRRPDEYHVKNLTRSALDLCRDAEELSPGQMISYYVVDEKRKIVDTDGENGIDYGYYRRCLTRALEEINFLFGKNCNIRRLEDFQSFQ” is “not soluble”.
The entry for “MFQALLTKLKNNAALGAAANNLNKFRSSNLGNQRRSVSVAVTSTSPKSEKPVAREHMIYDETHFVMQKSLGKLIEEKINPNVAKWEQDGRYPAHLVFKMLGDHGVFGVNKPEAFGGTGTDIAMATAIAEQMGAINCGSIPMSVMVQTDMSTPALAQFGSDALRERFLRPSITGDLVSSLAVSEPHAGSDVSAVHTHARRQGSDLIINGSKMWITNGGQADWACVLVNTSNTSNVHKNKSLVCVPLDAVGVHRSTPLDKLGMRSSDTVQLFFEDVRVPSSYIIGEEGRGFGYQMKQFNDERLVTVAVGLLPLQKCIDETIEYARDRLLFGKTLLDQQYIQFQLAELEAELEATRALLYRTVLARSRGDDVSMLTAMAKLKIGRLARAITDQCLQVWGGAGYLNENGISRAFRDFRLFSIGAGCDEVMMRIIHKAQSRRQLKKA” is “not soluble”; for “MPPCYPFMLSWKGWARDSPGRPGGAMRAHIITYGCQMNEYDSHLVASELVSLGWELVDSVEEADFVLVNTCAVRGKPVEKVRSLLGQLRKEKERRGLLIGMMGCLAQLDEGQQMAKKFGVDVLLGPGALTSLPEALKANERFWDLTFREDVLDYIPPPPKGALSAHVTIIRGCNHHCTYCIVPTTRGPEVSRHPDLILKEIELLKQAGVVEVTLLGQNVNSYGKDQPGFPSFAELLRMVGGMGIPRVRFLTSHPVNFTDDIIEAIAETPAICRYIHLPVQSGSDRVLRRMAREYRRAHYLERIRKIREALPDAVLSTDIIVGFPGETEEDFQETLSLYDEVGYDQAYMFIYSPRPGTPAYKHFQDLPREVKVERLMRLIEKQKEWSYRRNLEWVGKTVEVLVRGEAKEEGFVQGHDRGNHPVLVPASQAPVPGLYQVEIKQATPHLLFGEVVGAEAPAPIPLPVA” it is “soluble”.
“MASKTIIVMSDSHGDRDIVQAIKDKYLGQVDAIFHNGDSELNSSDPIWAGIYVVGGNCDYDTGYPDRLVTQLGTVTIAQTHGHLYHINFTWDKLDYFAQEVVADICLYGHLHRPAAWQVGQTLFMNPGSVTQPRGEINEKLYARVELTDTQIKVDYFTRDHKLYPSLSKEFKR”: the “soluble on expression in E. coli” value is “not soluble”.
On to “SLKVAIFDAFNGASGDMILASLLGVGISEEEIDEVVKALGIDVNYSMTTVSVRGISARRVEVEERDGERSFKEVLEIIRSSNLEEGVKKNAIAVFELIARAEGKVHGRDYREGVFHEVGADDAIFDVVCCVKAFENLKTAGYEFFATPVRAGSGFVEFSHGKYPVPPPAVLEILKSSNLEVVMDGEGELLTPTGAAILSHYCKPLKPFPIRVKEVSYGAGKRETDVPNVLRLILGETAFHDSIVVIETSVDDLSGEMIGYAMKKLLERDDVLDAVIIPAYGKKMRPASILKVISPTHRSEEVAAEVMRLTGSLGIRIIPVHHRLISERMEEVVKVEISGKEFDVRVKRSYPGFRHLKPEFDDIAVIADELNIPPHVVYREIVRKIVGAENADSNGQ”, for which the “soluble on expression in E. coli” value is reported as “soluble”.
For the sequence “MSLPQPKKDKPDTPLRSDAQRNRERILAVATEELTHCANAPLSAIAKKAGVGQGTFYRNFPNREALVLEIYRYGMQQVAEAAPEMLATGEPDLALRQWMDRLAEFAMTKAGLADAIRLVTSAPGAPEKPRPTPLEDAAELLLRANHEAGTIRPGVTGDDFFLVLGGLWLIDPGENWQPRVTRFLDLVMDGLRAGAPGREGHHHHHH”, the “soluble on expression in E. coli” value is on record as “soluble”.
The entry for “GAMAMRIYYIGVFRSGGEKALELSEVKDLSQFGFFERSSVGQFMTFFAETVASRTGAGQRQSIEEGNYIGHVYARSEGICGVLITDKEYPVRPAYTLLNKILDEYLVAHPKEEWADVTETNDALKMKQLDTYISKYQDPSQADA” is “soluble”; for “MGSDKIHHHHHHMTSADNILAHASAMRQFSQFAGVAGLDLRRACPPDVYAFVEQAQDAEWLPATAHVDVLQAAAIASGRADLGVAFAMWCNIRGFGPVSLLWDHCTTVDEASRITRRYMHLESAAMRSSTDTDGHEAALRHILMVPARFGGSQFLQATLALQLRIIRMLLGEEWTPIRLELDHPAPPSYRYHQAVFRCPIEFEADRCALVFRKSDLHRPSLRGNANMVQYLERQLAHADSHWPGDLVQQIRYFVAANLTERKANLAHVSGLAGLSSQSLQRRLAERGTTFATILEEVRKQTADEYFRTARRPNLTELSHRLGYTDASAASRFLRQHMSTGARALMAQVRPGRGRPGSARALAAEA” it is “not soluble”.
